± gives the standard deviation of the averaged measurements.
B1: library; a variant is named by its letters at X, in order (parent)
chain: MNIQIGELAKRTACPVVTIRFYEQEGLLPPPGRSRGNFRLYGEEHVERLQFIRHCRSLDMPLSXVRTLLSYRKRPDQDCGEVXMLLDEHXRQVESRIGALLELXHXLVELREACSGARPAQSCGILQGLSDCVCDTRGTTAHXSD

What was measured:
[1] = variants of: B1; assay: sfGFP reporter fluorescence (15 h) (µM FITC); higher = higher leak; settings: library round: Round 3b; ligand: none
Protocol: (§1)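 Cell-free biosensing: 1 µL Echo-assembled CFE reactions with linear PbrR variant templates (5 nM) and pPbrR-sfGFP reporter, with 1 µM Pb, 30 µM Zn or no ligand; endpoint sfGFP fluorescence after 15 h at 30 °C calibrated as µM FITC. Round 3b rational combinatorial PbrR mutants; 3 biological replicates.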

[2] = variants of: B1; assay: sfGFP reporter fluorescence (15 h) (µM FITC); higher = stronger transcriptional activation; settings: library round: Round 3b
Protocol: as §1

| Variant | sfGFP reporter fluorescence [1] | sfGFP reporter fluorescence ([2]; ligand: 1 µM Pb) | sfGFP reporter fluorescence ([2]; ligand: 30 µM Zn) |
| --- | --- | --- | --- |
| KIAKAT | 0.0563 ± 0.006 | 0.675 ± 0.061 | 0.0628 ± 0.0018 |
| KIAKAP | 0.0576 ± 0.0074 | 0.674 ± 0.062 | 0.0578 ± 0.0037 |
| KIAKAR | 0.0603 ± 0.0029 | 0.794 ± 0.049 | 0.0642 ± 0.0027 |
| DFATAP | 0.0454 ± 0.0046 | 0.048 ± 0.0038 | 0.0454 ± 0.0051 |
| DIIVER | 0.0467 ± 0.0027 | 0.0917 ± 0.0042 | 0.047 ± 0.0038 |
| DIIVET | 0.0433 ± 0.0015 | 0.0933 ± 0.0025 | 0.0469 ± 0.0019 |
| KIIKER | 0.0441 ± 0.0037 | 0.149 ± 0.017 | 0.0485 ± 0.0035 |
| DFATHR | 0.0436 ± 0.0022 | 0.053 ± 0.0037 | 0.0482 ± 0.0037 |
| KIAVHT | 0.0616 ± 0.0046 | 0.924 ± 0.066 | 0.0797 ± 0.0069 |
| KIAVHP | 0.0656 ± 0.0055 | 1.12 ± 0.13 | 0.0894 ± 0.011 |
| KIAVHR | 0.0703 ± 0.001 | 1.42 ± 0.17 | 0.0998 ± 0.0092 |
| KIITAP | 0.0473 ± 0.0044 | 0.308 ± 0.022 | 0.051 ± 0.005 |
| KIITAT | 0.0466 ± 0.0011 | 0.39 ± 0.032 | 0.05466 ± 0.00019 |
| KNAKET | 0.0595 ± 0.0029 | 0.248 ± 0.0068 | 0.569 ± 0.068 |
| DFIVAT | 0.0456 ± 0.0052 | 0.0992 ± 0.004 | 0.0496 ± 0.0011 |
| DFIVER | 0.0476 ± 0.0017 | 0.0836 ± 0.0022 | 0.0461 ± 0.001 |
| DFIVET | 0.0435 ± 0.0054 | 0.0785 ± 0.0019 | 0.0449 ± 0.0017 |
| DIITAT | 0.0431 ± 0.0041 | 0.0634 ± 0.005 | 0.0426 ± 0.0034 |
| DIIVAT | 0.0468 ± 0.0037 | 0.131 ± 0.0097 | 0.0469 ± 0.005 |
| DFATEP | 0.041 ± 0.0024 | 0.0428 ± 0.0007 | 0.0444 ± 0.0036 |
| DFATET | 0.0435 ± 0.0019 | 0.0466 ± 0.0012 | 0.0451 ± 0.001 |
| KFAKAT | 0.0569 ± 0.0013 | 0.564 ± 0.039 | 0.0878 ± 0.0047 |
| KFAKAP | 0.0577 ± 0.0042 | 0.495 ± 0.031 | 0.073 ± 0.0081 |

| Variant | sfGFP reporter fluorescence [1] | sfGFP reporter fluorescence ([2]; ligand: 1 µM Pb) | sfGFP reporter fluorescence ([2]; ligand: 30 µM Zn) |
| --- | --- | --- | --- |
| KIAVER | 0.0626 ± 0.0036 | 0.946 ± 0.087 | 0.0548 ± 0.002 |
| DFITER | 0.0424 ± 0.0031 | 0.0522 ± 0.0026 | 0.0451 ± 0.0034 |
| KNAVAP | 0.0482 ± 0.0035 | 0.142 ± 0.0073 | 0.214 ± 0.025 |
| KNAVAR | 0.0498 ± 0.001 | 0.195 ± 0.018 | 0.309 ± 0.028 |
| DNATET | 0.0419 ± 0.00051 | 0.0463 ± 0.0026 | 0.0623 ± 0.0031 |
| DFAKAT | 0.0421 ± 0.0041 | 0.0502 ± 0.0044 | 0.04614 ± 0.00019 |
| DFAKAR | 0.0429 ± 0.0064 | 0.0535 ± 0.005 | 0.0435 ± 0.0051 |
| KFITAT | 0.0473 ± 0.0032 | 0.335 ± 0.012 | 0.0678 ± 0.0076 |
| KFITAR | 0.0479 ± 0.003 | 0.394 ± 0.028 | 0.0776 ± 0.0024 |
| KIIKAT | 0.0413 ± 0.0042 | 0.17 ± 0.027 | 0.0483 ± 0.0033 |
| KIIVHT | 0.053 ± 0.0034 | 0.673 ± 0.034 | 0.101 ± 0.015 |
| KFAVAT | 0.0465 ± 0.0014 | 0.356 ± 0.02 | 0.057 ± 0.0017 |
| KFAVAR | 0.0482 ± 0.0037 | 0.398 ± 0.028 | 0.0563 ± 0.00097 |
| DIAVER | 0.0436 ± 0.004 | 0.0866 ± 0.0039 | 0.0484 ± 0.0041 |
| DIAVEP | 0.0409 ± 0.0007 | 0.0827 ± 0.0059 | 0.04514 ± 0.00039 |
| KNATAR | 0.0517 ± 0.005 | 0.302 ± 0.012 | 0.406 ± 0.066 |
| DNAVAT | 0.0419 ± 0.0015 | 0.0454 ± 0.0015 | 0.0637 ± 0.0046 |
| KIAVAP | 0.0556 ± 0.001 | 0.772 ± 0.15 | 0.0487 ± 0.0065 |
| KIAVAR | 0.0586 ± 0.0045 | 1.08 ± 0.06 | 0.0523 ± 0.0046 |
| KFITHT | 0.0512 ± 0.0076 | 0.492 ± 0.046 | 0.21 ± 0.024 |
| DFAVHT | 0.0401 ± 0.0051 | 0.0539 ± 0.001 | 0.0473 ± 0.0027 |
| DFAVHR | 0.0438 ± 0.0023 | 0.059 ± 0.0031 | 0.0519 ± 0.0031 |

Source: the supplement of paper PMC12783771
